Where no end group is shown, it is not given here. The star is where a group is joined. FITC = O=C1OC2(c3ccc(O)cc3Oc3cc(O)ccc32)c2ccc(NC(=S)*)cc21
Experiments:
Assay in all cases: FP
GST-tagged GluK1 ATD = molecular target: T1, GST-tagged GluK1 ATD (rat)
T1 chain: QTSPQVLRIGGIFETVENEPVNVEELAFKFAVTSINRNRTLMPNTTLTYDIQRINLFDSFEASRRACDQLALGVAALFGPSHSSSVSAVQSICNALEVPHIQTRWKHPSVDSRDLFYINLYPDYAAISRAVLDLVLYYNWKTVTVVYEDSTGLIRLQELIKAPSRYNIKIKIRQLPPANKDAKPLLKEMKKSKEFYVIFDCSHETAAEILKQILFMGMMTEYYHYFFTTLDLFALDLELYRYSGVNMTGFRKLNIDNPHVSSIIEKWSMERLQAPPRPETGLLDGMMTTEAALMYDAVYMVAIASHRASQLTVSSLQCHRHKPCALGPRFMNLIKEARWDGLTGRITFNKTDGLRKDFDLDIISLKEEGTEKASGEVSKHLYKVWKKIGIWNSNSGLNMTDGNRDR

GST-tagged GluK2 ATD = molecular target: T2, GST-tagged GluK2 ATD (rat)
T2 chain: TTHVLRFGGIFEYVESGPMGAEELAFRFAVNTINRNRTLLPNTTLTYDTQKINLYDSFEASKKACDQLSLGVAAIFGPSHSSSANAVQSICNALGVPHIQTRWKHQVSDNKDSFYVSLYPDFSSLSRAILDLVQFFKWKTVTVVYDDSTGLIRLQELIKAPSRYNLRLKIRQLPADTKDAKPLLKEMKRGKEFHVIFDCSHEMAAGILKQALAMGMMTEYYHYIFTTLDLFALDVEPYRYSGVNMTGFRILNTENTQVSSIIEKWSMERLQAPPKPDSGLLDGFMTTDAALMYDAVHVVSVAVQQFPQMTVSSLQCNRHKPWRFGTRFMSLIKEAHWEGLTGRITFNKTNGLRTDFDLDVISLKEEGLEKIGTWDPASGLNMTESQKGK

[1] = molecular target: T3, GST-tagged GluK1 N72-137 region (rat, UniProt P22756 72-137)
T3 chain: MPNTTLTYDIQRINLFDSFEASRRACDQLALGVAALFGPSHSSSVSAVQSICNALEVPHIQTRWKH

[2] = molecular target: T4, GST-tagged GluK2 region corresponding to GluK1 N72-137 (rat, UniProt P42260 71-136)
T4 chain: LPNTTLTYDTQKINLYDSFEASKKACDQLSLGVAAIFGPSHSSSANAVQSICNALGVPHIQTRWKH

Binder: {FITC}-MERSTVLIQPGLWTRDTSWTLLYFLCYILP [FITC-labelled GluK1 signal peptide]
- Kd (GST-tagged GluK1 ATD): 13.7 µM
- Kd (GST-tagged GluK2 ATD): 35.7 µM
- Kd [1]: 14.1 µM
- Kd [2]: 36.3 µM

Reference: paper PMC6242971 (2018)
